The EC50 is the concentration needed to bring the measured effect to its halfway point. A high value points to a need for much substance.

We go through two molecules from patent publication US20210388096A1 (Astellas, published 2021).

Assay [1] concerns the target T1, human Fn14 on cells (NFkB/HEK293 reporter cells, A375 cells) (human, UniProt Q9NP84 28-129).
T1 sequence (looked up): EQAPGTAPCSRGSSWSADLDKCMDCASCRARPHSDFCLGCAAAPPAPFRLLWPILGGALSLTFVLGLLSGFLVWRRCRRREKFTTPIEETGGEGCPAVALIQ
In words: cell-based or functional assay.

The target in assay [2] is T2, human Fn14-human Fc fusion protein (human, UniProt Q9NP84 28-79).
T2 construct: range 1-79; Purified from CHO-K1SV culture supernatant; coated on the ELISA plate
T2 sequence: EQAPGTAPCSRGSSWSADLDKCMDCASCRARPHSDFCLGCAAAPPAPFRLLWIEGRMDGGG
Description: ELISA, Fn14-Fc fusion coated on plate, HRP anti-human kappa detection. As for the experimental part:
(§1) Binding activities of 4-1h and 4-1m acquired in Example 4 to a Fn14 protein were evaluated. The human Fn14-human Fc fusion protein and the mouse Fn14-mouse Fc fusion protein acquired in Example 1 were diluted in phosphate buffered saline (PBS) at 1 μg/mL and added to a MaxiSorp 384-well transparent plate (Nunc, 464718) at 15 μL/well. Incubation was performed overnight at 4° C. for Immobilization. On the next day, the solid phase liquid was removed, and washing was performed with a 0.05% Tween-20-containing Tris-buffered saline (TBS-T). PBS containing 20% Blocking One (Nacalai tesque, Inc., 03953-95) was added thereto at […]. The resultant was left at room temperature for 1 hour, and then washed with TBS-T. A dilution series of 4-1h or 4-1m acquired in Example 4 was prepared by dilution in 12 steps with a 4-fold common ratio from a maximum concentration of 30 μg/mL using TBS-T containing 5% Blocking One (hereinafter, referred to as a diluent), and added at 20 μL/well. […] Then, the reaction was stopped by adding a 2M sulfuric acid, and the absorbance at 450 nm was measured with SpectraMax Paradigm (Molecular Devices, LLC). The test was performed in duplicate, and EC₅₀ values were calculated by 4-parameter logistic curve fitting.
(ELISA stands for enzyme-linked immunosorbent assay.)

Assay [3] deals with T3, mouse Fn14-mouse Fc fusion protein (mouse, UniProt Q9CR75 28-75).
T3 construct: range 1-75; Fn14 part cloned via EcoRI/EcoRV into the multicloning site of pFUSE-mIgG2B-Fc1; not shown: mouse Fc region: mIgG2B-Fc region of vector pFUSE-mIgG2B-Fc1 (InvivoGen)
The assay is described as above. As for the experimental part: as §1

The target in assay [4] is T2, human Fn14-human Fc fusion protein. In words: ELISA, Fn14-Fc fusion coated on plate, HRP anti-mouse kappa detection. On the procedure:
as §1

In assay [5] the target is T3, mouse Fn14-mouse Fc fusion protein. Described as above. On the procedure: as §1

T3 sequence (Q9CR75 28-75 limits assumed): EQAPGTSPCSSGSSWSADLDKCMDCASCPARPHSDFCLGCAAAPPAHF

B1: fully humanized anti-human Fn14 antibody 4-1h (antibody, human IgG1, kappa, L234A L235A, V domains shown)
VH: QVQLQQWGAGLLKPSETLSLTCAVYGGSFSGYYWSWIRQPPGKGLEWIGEINHRGSTNSNPSLKSRDTISVDTSKNQFSLRLRSVTAADTAVYYCAREGISGSMGIYDYSGMDVWGQGTTVTVSS
VL: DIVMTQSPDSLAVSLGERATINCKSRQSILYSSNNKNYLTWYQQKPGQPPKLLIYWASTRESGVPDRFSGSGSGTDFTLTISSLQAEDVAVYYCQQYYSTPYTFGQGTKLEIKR
modifications: most of the purified antibodies had pyroglutamylation at the N terminal of the heavy chain and deletion of lysine at the C terminal (Example 5)
notes: human kappa light chain; Expressed in CHO-K1SV cells; also called fully humanized antibody of 4-1
Turning to B1, the “IC50 (ng/mL), inhibition of Tweak-induced NFkB activation (luciferase reporter, NFkB/HEK293 cells), geometric mean of three trials” value in assay [1] came out at 41.5 ng/mL. Further, the concentration giving a half-maximal response (EC50) in assay [2] was found to be 0.0304 µg/mL; in assay [3], 0.0232 µg/mL.

B2: murinized anti-human Fn14 antibody 4-1m (antibody, mouse IgG2a, kappa, V domains shown)
VH: DVQLQESGPGLVKPSQSLSLTCAVYGGSFSGYYWSWIRQFPGNKLEWMGEINHRGSTNSNPSLKSRISITVDTSKNQFFLQLNSVTTEDTATYYCAREGISGSMGIYDYSGMDVWGQGTLVTVSA
VL: DIVMSQSPSSLAVSVGEKVTMSCKSRQSILYSSNNKNYLTWYQQKPGQSPKLLIYWASTRESGVPDRFTGSGSGTDFTLTISSVKAEDLAVYYCQQYYSTPYTFGSGTKLEIKR
notes: Framework regions of 4-1h partially substituted with mouse FR; mouse kappa light chain; also called murinized antibody of 4-1h
Take B2: the concentration giving a half-maximal response (EC50) stood at 0.0182 µg/mL in assay [4] and 0.0165 µg/mL in assay [5].
